In paper PMC6051418 one finds stoichiometry N data, which are given here for one substance.

Broadly, the stoichiometry N is the number of molecules, sites or subunits per partner or assembly.

In the assay the target is R28A-HD5 (human). Nature of the assay: crystal structure.

As to R28A-HD5 (peptide), the stoichiometry N is 2.
